This note sets out measurements from the supplement of paper PMC9170038.

The test system of this series is K4 kissing-loop RNA reporter. In words: apparent KD of K4 kissing-loop reporter; higher = weaker reporter binding. The settings on record: Eterna round: R107. The procedure: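 RNA-MaP round R107: designed RNA switches with theophylline, tryptophan, arginine or FMN aptamers are transcribed on-chip within common flanks. They are titrated with a labelled K4 kissing-loop RNA reporter in RNA-MaP buffer (100 mM Tris pH 7.5, 80 mM KCl, 4 mM MgCl2), without ligand or with the indicated ligand. Median apparent KD per design.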

Setting [1] is: input ligand: theophylline 20 uM.
[2] abbreviates: input ligand: tryptophan 2.4 mM.
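Also: bound reporter read as fluorescence of individual clusters on recovered sequencing chips by microscopy, with normalized cluster intensities fitted with a binding model.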

For the sequence “AAAGGCAAAGCCCGAGUGAUGUUCGACGAUACCAGCCUCGAUAGAGGCCCUUGGCAGCGUAAAUGAUCACAAAGCCAAGGAAUAA [#OpenEnded 2 #StaticStem]”, the “apparent KD of K4 kissing-loop reporter” value came out at 310 nM (input ligand: FMN 200 uM); 244 nM (input ligand: arginine 13.2 mM); 268 nM (input ligand: none); 248 nM under setting [1]; 261 nM under setting [2].
“AAAGCUUGGAUGGACGUUAGCGACGGAGAAGGAGCGCACGGAAGUGCAGGUAGGUCGCUCCGAGUGAUGUUCGUGAGUGAUUGCU [Ditienti]”: the “apparent KD of K4 kissing-loop reporter” value (input ligand: FMN 200 uM) was 229 nM; the “apparent KD of K4 kissing-loop reporter” value (input ligand: arginine 13.2 mM) turned out to be 329 nM; the “apparent KD of K4 kissing-loop reporter” value (input ligand: none) was determined as 385 nM; the “apparent KD of K4 kissing-loop reporter” value under setting [1] is 252 nM; the “apparent KD of K4 kissing-loop reporter” value under setting [2] came out at 301 nM.
In the case of “AUGUCUGAUAGCAGUGAUGUUGCUUCGGAUACCAGACGAGAUCAUGUCCCUUGGCAGCUGACACGGCACGUGCUAGGUUAGAUGG [whbob_Ex_Theo_A_th73]”, the “apparent KD of K4 kissing-loop reporter” value is, setting by setting: (input ligand: FMN 200 uM) 121 nM; (input ligand: arginine 13.2 mM) 115 nM; (input ligand: none) 111 nM; under setting [1], 94.7 nM; under setting [2], 115 nM.
With “ACGCGCGCGAGUGAUGUUCGGAGCGGCUGGCAGGAUAUGGAGCAAUCCAGAAGGGUCGUGGCUGCUGGUAGGAAACUACUGGCAG [#2 Exclusion - FMN A Attempt #3 (HarryS)]”, the “apparent KD of K4 kissing-loop reporter” value stood at 135 nM (input ligand: FMN 200 uM); 239 nM (input ligand: arginine 13.2 mM); 350 nM (input ligand: none); 330 nM under setting [1]; 299 nM under setting [2].
Taken in the same sequence, the figures for “GGCCCGGGCGCGGCCGCCACUCCCUCGUACCGCAAGGUAUGAUACCGAGUGAUGUUCGGUUGGAGGAGGACCGGGCGCCCGGGCC [#2 Exclusion - Tryptophan B Attempt #5 (HarryS)]” were 122 nM, 101 nM, 108 nM, 77.4 nM and 91.1 nM.
In the case of “UGACUGGACUGAAGGAGCGAGCGAGACAAAGUCUCGAAUUUUCAGUGAUGUUGAUAUAUAACUCAGGUAGGUCGCAGUCUAGUCU [ArgBS 8 #SwitchBubble #StaticStem]”, the “apparent KD of K4 kissing-loop reporter” value is, setting by setting: (input ligand: FMN 200 uM) 395 nM; (input ligand: arginine 13.2 mM) 423 nM; (input ligand: none) 543 nM; under setting [1], 438 nM; under setting [2], 441 nM.
“GUACCUUGGAAACAAGGACAGAUAACCGAAGGAGCGCGUGAAAACGCAGGUAGGUCGCGGAAGCAGUGAUGUUGCAAAAGAGAGC [Same State Arginine A GF 17]”: the “apparent KD of K4 kissing-loop reporter” value reads like this: (input ligand: FMN 200 uM) 168 nM; (input ligand: arginine 13.2 mM) 188 nM; (input ligand: none) 125 nM; under setting [1], 228 nM; under setting [2], 111 nM.
Taken in the same sequence, the figures for “AAUAUACAUUAAUUAAUUAAAGGUUCAGAAGGAGCGUGAAUUAACACAGGUAGGUCGCUGAGCGAGUGAUGUUCGCUAUAUACUA [JR_ExcArginiA_Sub004]” were 61.4 nM, 73.1 nM, 69.5 nM, 79.9 nM and 58.1 nM.
In the same order, the values of “GCAUUGAGUGAUGUUUAAGCUUAGUCAUCACGAGGACCGGUACGGCCGCCACUCGUGCUUGGAGCGACCGAUACCCUAGAGACCC [theeternabot_sameState_KL_Trp_A_27]” are 160 nM, 62.5 nM, 61.7 nM, 247 nM and 193 nM.
Turning to “UUCAGGUGUUCGGCCGCCACUCCAGUGAUGUUGGAGUGGCUUCACAAGGACCAGGACAAUGUAAGGAGGACCGGGAAUAUCUCAG [Vequleat]”, the “apparent KD of K4 kissing-loop reporter” value came to 130 nM (input ligand: FMN 200 uM); 105 nM (input ligand: arginine 13.2 mM); 136 nM (input ligand: none); 128 nM under setting [1]; 118 nM under setting [2].
Regarding “AUAGGCAUAGCCCGAGUGAUGUUCGACGAUACCAGCCUCGAUAGAGGCCCUUGGCAGCGUAAAUGAUCAUGAAGCCAAGGAAUAA [whbob_Ex_Theo_A_th69]”, the “apparent KD of K4 kissing-loop reporter” value by setting is: (input ligand: FMN 200 uM) 342 nM; (input ligand: arginine 13.2 mM) 313 nM; (input ligand: none) 442 nM; under setting [1], 353 nM; under setting [2], 313 nM.
On to “CGAGUGAUGUUCGUUCUUUUAUUUUUUUGACAGGAUAUGCGGAAACGCAGAAGGGUCACCUUUGAGUUAAAAGAAUUUAAGUUAU [Ex FMN A 24]”, for which the “apparent KD of K4 kissing-loop reporter” value runs as follows: (input ligand: FMN 200 uM) 309 nM; (input ligand: arginine 13.2 mM) 284 nM; (input ligand: none) 353 nM; under setting [1], 287 nM; under setting [2], 235 nM.
As for “AGCCUGAUAUAAGGAUAUCCGGACCGAGUAACUGAGUGAUGUUCAGGUGAAUAAUGUCUCACAUUGGGAGAAGGUAUUUCAGCGA [theeternabot_sameState_KL_FMN_B_21]”, the “apparent KD of K4 kissing-loop reporter” value is, setting by setting: (input ligand: FMN 200 uM) 232 nM; (input ligand: arginine 13.2 mM) 182 nM; (input ligand: none) 251 nM; under setting [1], 276 nM; under setting [2], 225 nM.
In the case of “UUUAUUAAGACGGCCGCCACUGAUUCAGAGUGAUGUUCUGAUAAAAUUUUAGAUAAUAAUAACAGCAGGACCGGGUCAAUUAUUA [JR_SSTryptoB_Sub014]”, the “apparent KD of K4 kissing-loop reporter” value is, setting by setting: (input ligand: FMN 200 uM) 211 nM; (input ligand: arginine 13.2 mM) 211 nM; (input ligand: none) 238 nM; under setting [1], 219 nM; under setting [2], 208 nM.
In the case of “GGCGCUGCCUGUGCCGCCCUCCUCGUCCCUCGAGGACCGGUACGGCCGCCACUCGAGUGAUGUUCGGGUAGCCCUCCCUGCCAGC [BDazzled - #23 Exc. Tryptophan A]”, the “apparent KD of K4 kissing-loop reporter” value (input ligand: FMN 200 uM) turned out to be 585 nM; the “apparent KD of K4 kissing-loop reporter” value (input ligand: arginine 13.2 mM) is 407 nM; the “apparent KD of K4 kissing-loop reporter” value (input ligand: none) is 567 nM; the “apparent KD of K4 kissing-loop reporter” value under setting [1] was found to be 511 nM; the “apparent KD of K4 kissing-loop reporter” value under setting [2] is 340 nM.
In the same order, the values of “CGUUGGAGUGAUGUUCCAGGUUGUACGGAUACCAGCCAAGCCAGCGGCCCUUGGCAGCCGACUAUUGCAGUGAUGUUGUGAUGCC [Same State Theophylline A GF 3]” are 715 nM, 539 nM, 751 nM, 772 nM and 524 nM.
With “UGUCAUUGGUCUGAUACCAGCUGAUCGGAAACGAUCAUGCUGGAGUGAUGUUCCAGGAAAAGCCCUUGGCAGCAGACCGAUGACU [TheoBS 11 #SwitchBubble #StaticStem]”, the “apparent KD of K4 kissing-loop reporter” value (input ligand: FMN 200 uM) was 474 nM; the “apparent KD of K4 kissing-loop reporter” value (input ligand: arginine 13.2 mM) was found to be 248 nM; the “apparent KD of K4 kissing-loop reporter” value (input ligand: none) was 121 nM; the “apparent KD of K4 kissing-loop reporter” value under setting [1] stood at 405 nM; the “apparent KD of K4 kissing-loop reporter” value under setting [2] worked out at 195 nM.
